The source of these data is patent US20170158755A1 (PROTHENA BIOSCIENCES, published 2017).

Numbering of substitutions follows the chain as printed.

One experiment concerns the target T1, human His-laminin-α4 (human, UniProt Q16363 833-1823, limits assumed).
T1 construct: Bought His-tagged recombinant protein (R & D Systems); also called Human LAMA4; human His-laminin-α4 (R & D Systems)
T1 sequence: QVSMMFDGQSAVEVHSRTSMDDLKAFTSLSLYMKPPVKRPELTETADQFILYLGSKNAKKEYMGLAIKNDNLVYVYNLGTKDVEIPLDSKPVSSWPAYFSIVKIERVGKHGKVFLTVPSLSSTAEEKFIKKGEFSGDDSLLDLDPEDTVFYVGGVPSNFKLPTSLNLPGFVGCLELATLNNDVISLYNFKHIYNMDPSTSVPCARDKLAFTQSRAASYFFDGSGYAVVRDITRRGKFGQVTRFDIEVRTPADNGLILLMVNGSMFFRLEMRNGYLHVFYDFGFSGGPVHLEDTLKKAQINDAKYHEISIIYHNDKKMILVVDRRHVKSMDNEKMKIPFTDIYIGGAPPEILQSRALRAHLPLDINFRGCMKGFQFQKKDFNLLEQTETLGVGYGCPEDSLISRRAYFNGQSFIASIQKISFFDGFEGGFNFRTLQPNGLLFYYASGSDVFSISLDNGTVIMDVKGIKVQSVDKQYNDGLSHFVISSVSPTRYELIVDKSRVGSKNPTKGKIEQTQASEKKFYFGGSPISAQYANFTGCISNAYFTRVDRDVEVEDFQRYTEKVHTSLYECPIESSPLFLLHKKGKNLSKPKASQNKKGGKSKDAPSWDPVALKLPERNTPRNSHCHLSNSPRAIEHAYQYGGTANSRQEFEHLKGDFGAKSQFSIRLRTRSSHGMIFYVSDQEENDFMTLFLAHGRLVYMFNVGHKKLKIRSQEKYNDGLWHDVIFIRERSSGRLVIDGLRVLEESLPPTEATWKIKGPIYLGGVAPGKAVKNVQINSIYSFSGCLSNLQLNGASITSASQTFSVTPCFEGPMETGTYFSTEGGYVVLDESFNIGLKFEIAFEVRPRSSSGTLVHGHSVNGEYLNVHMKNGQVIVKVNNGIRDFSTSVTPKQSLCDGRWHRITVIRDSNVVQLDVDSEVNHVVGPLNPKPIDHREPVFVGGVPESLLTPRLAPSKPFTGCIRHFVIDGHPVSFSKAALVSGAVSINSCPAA
In words: Biacore SPR.

A further experiment addresses T2, mouse His-laminin-α4 (mouse, UniProt P97927 826-1816, limits assumed).
T2 construct: Bought His-tagged recombinant protein; also called Murine LAMA4; recombinant mouse LAMA4-His
T2 sequence (looked up): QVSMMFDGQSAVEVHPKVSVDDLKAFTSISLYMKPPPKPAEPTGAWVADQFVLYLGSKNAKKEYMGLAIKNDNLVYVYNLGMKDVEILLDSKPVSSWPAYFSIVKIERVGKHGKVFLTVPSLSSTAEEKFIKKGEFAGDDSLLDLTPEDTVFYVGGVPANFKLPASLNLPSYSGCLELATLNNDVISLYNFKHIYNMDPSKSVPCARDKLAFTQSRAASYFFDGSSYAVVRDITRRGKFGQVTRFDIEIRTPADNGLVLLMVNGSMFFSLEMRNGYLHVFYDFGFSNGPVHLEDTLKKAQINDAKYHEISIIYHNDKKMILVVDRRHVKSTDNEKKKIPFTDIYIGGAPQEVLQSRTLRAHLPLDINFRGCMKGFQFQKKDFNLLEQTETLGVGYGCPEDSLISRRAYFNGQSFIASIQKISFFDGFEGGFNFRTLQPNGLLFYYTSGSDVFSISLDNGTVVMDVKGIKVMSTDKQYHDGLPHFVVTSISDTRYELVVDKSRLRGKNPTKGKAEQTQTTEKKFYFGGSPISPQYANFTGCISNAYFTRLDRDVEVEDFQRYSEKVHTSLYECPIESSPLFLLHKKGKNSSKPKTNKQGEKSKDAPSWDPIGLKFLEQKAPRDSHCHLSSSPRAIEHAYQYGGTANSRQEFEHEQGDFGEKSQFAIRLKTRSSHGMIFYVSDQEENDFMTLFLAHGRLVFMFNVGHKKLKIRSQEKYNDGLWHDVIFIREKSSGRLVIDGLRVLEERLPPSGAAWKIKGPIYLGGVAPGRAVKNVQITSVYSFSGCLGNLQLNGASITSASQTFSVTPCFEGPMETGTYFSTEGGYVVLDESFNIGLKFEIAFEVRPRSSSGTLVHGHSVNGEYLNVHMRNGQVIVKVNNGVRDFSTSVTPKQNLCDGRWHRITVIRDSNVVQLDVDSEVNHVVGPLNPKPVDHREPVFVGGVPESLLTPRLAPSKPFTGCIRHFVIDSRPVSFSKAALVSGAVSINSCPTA
In words: Biacore SPR.

Experiment [1] addresses T3, LGde2, human LAMA4 G domain with LG2 deleted, displayed on 293 cells (human, UniProt Q16363 830-1821, limits assumed).
T3 construct: pDisplay construct on 293 cells; vector tags and anchor not written here; also called LGde2 (LG13)
T3 sequence: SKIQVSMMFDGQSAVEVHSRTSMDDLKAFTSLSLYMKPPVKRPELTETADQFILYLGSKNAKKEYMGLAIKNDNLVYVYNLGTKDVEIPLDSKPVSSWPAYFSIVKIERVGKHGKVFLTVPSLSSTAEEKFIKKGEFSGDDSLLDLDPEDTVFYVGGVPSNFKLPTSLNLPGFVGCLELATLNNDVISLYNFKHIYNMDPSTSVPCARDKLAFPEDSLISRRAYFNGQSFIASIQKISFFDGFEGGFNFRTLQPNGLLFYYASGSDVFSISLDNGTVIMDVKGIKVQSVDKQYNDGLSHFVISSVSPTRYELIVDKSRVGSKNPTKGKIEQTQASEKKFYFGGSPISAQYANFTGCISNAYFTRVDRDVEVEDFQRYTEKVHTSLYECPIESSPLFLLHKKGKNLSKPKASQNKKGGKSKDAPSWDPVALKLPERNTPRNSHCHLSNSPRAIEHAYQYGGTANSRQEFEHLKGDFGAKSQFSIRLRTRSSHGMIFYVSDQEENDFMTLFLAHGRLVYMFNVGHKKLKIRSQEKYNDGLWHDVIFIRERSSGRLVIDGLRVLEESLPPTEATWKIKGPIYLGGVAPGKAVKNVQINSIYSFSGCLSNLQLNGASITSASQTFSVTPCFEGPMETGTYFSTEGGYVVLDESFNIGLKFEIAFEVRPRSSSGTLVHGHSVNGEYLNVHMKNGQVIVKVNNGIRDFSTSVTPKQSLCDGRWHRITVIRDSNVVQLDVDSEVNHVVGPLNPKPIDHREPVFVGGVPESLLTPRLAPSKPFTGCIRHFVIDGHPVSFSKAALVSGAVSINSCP
Briefly: flow cytometry on 293 cells displaying LAMA4 G-domain variants; % binding. From the text:
LGde1 has a full-length G domain (i.e., LG1-5) with LG1 deleted, LGde2 has a full-length G domain with LG2 deleted, and LGde3 has a full-length G domain with LG3 deleted. Recombinant MCAM-Fc protein was able to specifically bind 293 cells expressing LAMA4 variants LG1-5, LG1-3, and LGde 1 (LG23), but not 293 cells expressing LAMA 4 variants LG4-5, LGde2 (LG13), or LGde3 (LG12).

In experiment [2] the target is T4, human LAMA4 G domain (LG1-5) displayed on 293 cells (human, UniProt Q16363 830-1821).
T4 construct: the vector's tags and membrane anchor are not written here; also called LAMA4-displaying human 293 cells; full length
T4 sequence: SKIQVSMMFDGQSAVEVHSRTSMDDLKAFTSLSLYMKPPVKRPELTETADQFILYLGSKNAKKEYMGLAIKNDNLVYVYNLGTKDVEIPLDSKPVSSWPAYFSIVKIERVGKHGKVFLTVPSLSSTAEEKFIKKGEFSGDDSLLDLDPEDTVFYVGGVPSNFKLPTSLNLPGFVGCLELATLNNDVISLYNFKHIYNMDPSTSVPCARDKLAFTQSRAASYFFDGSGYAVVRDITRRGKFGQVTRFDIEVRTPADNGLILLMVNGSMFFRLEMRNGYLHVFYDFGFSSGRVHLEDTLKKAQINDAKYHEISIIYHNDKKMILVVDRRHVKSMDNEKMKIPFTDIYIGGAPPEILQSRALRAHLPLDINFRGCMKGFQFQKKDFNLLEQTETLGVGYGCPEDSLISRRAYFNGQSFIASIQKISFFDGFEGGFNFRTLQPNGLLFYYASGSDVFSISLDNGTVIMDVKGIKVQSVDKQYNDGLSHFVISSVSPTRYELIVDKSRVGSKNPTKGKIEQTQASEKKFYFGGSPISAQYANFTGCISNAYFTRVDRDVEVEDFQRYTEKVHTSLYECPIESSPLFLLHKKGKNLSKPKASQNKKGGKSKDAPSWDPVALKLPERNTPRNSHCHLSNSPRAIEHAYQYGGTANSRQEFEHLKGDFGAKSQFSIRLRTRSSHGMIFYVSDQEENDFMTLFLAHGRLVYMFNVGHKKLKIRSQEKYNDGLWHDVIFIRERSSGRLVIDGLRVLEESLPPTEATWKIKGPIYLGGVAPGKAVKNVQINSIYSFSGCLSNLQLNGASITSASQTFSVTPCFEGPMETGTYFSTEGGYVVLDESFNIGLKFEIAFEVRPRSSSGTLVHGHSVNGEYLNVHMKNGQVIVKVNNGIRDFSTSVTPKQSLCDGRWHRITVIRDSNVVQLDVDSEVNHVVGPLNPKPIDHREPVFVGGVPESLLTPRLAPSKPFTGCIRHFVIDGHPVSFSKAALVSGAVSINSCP
In words: flow cytometry on LAMA4-displaying 293 cells, anti-human-650 secondary antibody; MFI. As for the experimental part:
(§1) The 19C12 variants chimeric 19C12, H2L3, H2L4, H2L6, H3L6, and isotype control were tested for their ability to block the binding of LAMA4 to its ligand MCAM (FIG. 15) and to bind LAMA4-displaying cells (FIG. 16). To test LAMA4 binding capacity, serially diluted antibodies were pre-incubated with LAMA4-displaying human 293 cells, followed by anti-human-650 secondary antibody incubation. […] Fluorescent signal was assessed via flow cytometric analyses and plotted as mean fluorescence intensity (MFI). All 19C12 variants retained their MCAM blocking and LAMA4 binding activity when compared with chimeric 19C12.

Experiment [3] concerns the target T5, mouse LAMA4 in mouse tissue (mouse, UniProt P97927 25-1816).
T5 construct: Native protein in tissue sections, there part of laminin trimers; also called LAMA4-positive mouse tissue; LAMA4-positive mouse brain vasculature
In words: staining of WT versus LAMA4.KO mouse brain cryosections, anti-human-594 secondary. From the text:
The specific binding between the 19C12 humanized variants (19C12 chi, H2L3, H2L4, H2L6, H3L6 and isotype control) and LAMA4 was further tested by assessing the variants' ability to stain wild-type vs. LAMA4.KO mouse brains. Humanized monoclonal antibodies against LAMA4 were generated as described in the Materials and Methods. Perfused and fresh frozen WT and LAMA4.KO mouse brains were cryosectioned, acetone-fixed, and stained with LAMA4 primary antibody followed by anti-human-594 secondary antibodies.

A further experiment deals with T6, recombinant laminin 411 (human, UniProt P07942 22-1786; P11047 34-1609, limits assumed).
T6 construct: also called LAMA4 in complex with its gamma1 and beta1 chains
In words: flow cytometric blocking assay; antibody pre-incubated with 650-labeled laminin 411; blocked partner: human MCAM on CHO cells; MFI. As for the experimental part:
as §1
Following two washes with FACS buffer (1% FBS in PBS), cells were resuspended with 650-conjugated anti-pan-laminin antibody (1:1000; Novus Biologicals) and incubated for 20 min at 4° C., and washed again. Cells were analyzed for pan-laminin reactivity by flow cytometry using standard procedures.

T5 sequence (P97927 25-1816 limits assumed): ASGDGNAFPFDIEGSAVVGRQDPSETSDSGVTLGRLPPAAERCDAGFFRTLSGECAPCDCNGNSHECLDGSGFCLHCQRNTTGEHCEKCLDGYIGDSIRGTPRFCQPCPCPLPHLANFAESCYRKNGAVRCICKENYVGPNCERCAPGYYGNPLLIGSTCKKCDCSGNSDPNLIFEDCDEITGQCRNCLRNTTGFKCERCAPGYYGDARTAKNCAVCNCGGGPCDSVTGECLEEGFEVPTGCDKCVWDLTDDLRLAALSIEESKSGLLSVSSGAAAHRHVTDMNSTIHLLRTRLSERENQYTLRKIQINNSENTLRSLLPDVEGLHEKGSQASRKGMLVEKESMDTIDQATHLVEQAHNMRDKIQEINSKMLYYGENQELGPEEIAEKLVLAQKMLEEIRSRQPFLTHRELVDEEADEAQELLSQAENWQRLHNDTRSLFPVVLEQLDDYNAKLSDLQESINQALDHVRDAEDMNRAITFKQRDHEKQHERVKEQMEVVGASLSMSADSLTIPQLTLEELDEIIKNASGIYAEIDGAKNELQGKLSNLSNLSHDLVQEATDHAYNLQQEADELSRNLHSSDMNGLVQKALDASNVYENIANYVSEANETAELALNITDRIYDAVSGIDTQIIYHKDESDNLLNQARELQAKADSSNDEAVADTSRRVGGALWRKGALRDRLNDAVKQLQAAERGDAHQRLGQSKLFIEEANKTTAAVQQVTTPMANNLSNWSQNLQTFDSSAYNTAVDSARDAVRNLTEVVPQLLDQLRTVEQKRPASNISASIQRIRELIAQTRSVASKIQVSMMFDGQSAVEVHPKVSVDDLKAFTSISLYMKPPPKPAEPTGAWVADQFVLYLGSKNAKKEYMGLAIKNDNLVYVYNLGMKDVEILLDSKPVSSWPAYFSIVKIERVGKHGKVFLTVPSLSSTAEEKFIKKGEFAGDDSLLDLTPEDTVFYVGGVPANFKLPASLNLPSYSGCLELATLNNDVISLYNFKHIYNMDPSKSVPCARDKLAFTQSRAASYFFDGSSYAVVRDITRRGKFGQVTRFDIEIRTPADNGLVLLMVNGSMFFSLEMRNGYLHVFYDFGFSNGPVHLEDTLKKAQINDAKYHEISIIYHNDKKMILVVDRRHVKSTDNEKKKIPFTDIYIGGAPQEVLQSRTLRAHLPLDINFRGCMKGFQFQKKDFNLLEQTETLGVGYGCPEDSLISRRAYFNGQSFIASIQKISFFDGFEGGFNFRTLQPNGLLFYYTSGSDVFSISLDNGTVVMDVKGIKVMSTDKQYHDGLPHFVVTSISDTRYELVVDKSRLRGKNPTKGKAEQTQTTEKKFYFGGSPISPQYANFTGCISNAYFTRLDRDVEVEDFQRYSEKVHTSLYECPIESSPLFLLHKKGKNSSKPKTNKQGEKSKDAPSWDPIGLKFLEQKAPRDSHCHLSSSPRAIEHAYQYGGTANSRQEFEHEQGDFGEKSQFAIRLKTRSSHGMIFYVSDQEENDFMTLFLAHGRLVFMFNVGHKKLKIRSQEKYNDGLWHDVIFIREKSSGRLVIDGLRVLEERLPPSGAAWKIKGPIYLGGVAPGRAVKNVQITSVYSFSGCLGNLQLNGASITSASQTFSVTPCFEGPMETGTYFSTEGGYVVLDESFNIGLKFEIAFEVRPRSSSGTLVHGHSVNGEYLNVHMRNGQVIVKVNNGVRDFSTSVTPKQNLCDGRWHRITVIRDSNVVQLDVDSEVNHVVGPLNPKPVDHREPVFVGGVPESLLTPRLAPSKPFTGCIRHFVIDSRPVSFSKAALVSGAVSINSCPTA

B1: mouse monoclonal antibody 5B5 (antibody, V domains shown)
VH: QVQLQQPGAELVKPGASVKLSCKASGYTFTSYWMHWVKQRPGRGLEWIGRIDPNSGGTKHNEKFKSKATLTVDKPSSTAYMQLSSLTSEDSAVYYCAGSPSYYDYALHYAMDYWGQGTSVTVSS
VL: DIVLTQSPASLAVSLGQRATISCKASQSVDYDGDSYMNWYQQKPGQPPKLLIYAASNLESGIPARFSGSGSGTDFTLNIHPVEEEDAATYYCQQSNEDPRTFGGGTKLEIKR
Regarding B1, in the experiment with human His-laminin-α4, binding was put at a Kd of 7.33 nM, the koff came out at 0.0105 s⁻¹ and the kon was 1.43e+06 M⁻¹ s⁻¹. In the experiment with mouse His-laminin-α4, the Kd was 5.27 nM, the koff is 0.0116 s⁻¹ and the kon was 2.2e+06 M⁻¹ s⁻¹. The binding result in experiment [1] is given as “no binding”.

B2: humanized 19C12 antibody H2L3 (antibody, V domains shown)
VH: QVQLQQSGAELVKPGASVKVSCKASGYAFSTYWMNWVRQAPGQGLEWIGQIYPGDGDTNYNGKFKGRVTITADKSTSTAYMELSSLRSEDTAVYFCARSDGYYDYWGQGTTVTVSS
VL: NIVLTQSPASLAVSLGERATISCRASESVDSYGTSFMHWYQQKPGQPPKLLICLASSLESGVPARFSGSGSRTDFTLTIDPVEAEDAATYYCQQNNEDPPTFGAGTKLEIKR
notes: Intact humanized IgG (human Fc); also called VHv2/VLv3; Hu19C12 H2L3
As to B2, the binding result (in experiment [2]; in experiment [3]; with recombinant laminin 411) was “binds” throughout.

B3: humanized 19C12 antibody H2L4 (antibody, V domains shown)
VH: B2 VH
VL: B2 VL with C53S, R72G, D80S
notes: Intact humanized IgG (human Fc); also called VHv2/VLv4
Consider B3, for which the binding result (in experiment [2]; in experiment [3]; with recombinant laminin 411) was “binds” throughout.

B4: humanized 19C12 antibody H2L6 (antibody, V domains shown)
VH: B2 VH
VL: B2 VL with N1D, C53S, R72G, D80S
notes: Intact humanized IgG (human Fc); also called VHv2/VLv6
On to B4, for which the binding result (in experiment [2]; in experiment [3]; in the experiment with recombinant laminin 411) was “binds” each time.

B5: humanized 19C12 antibody H3L6 (antibody, V domains shown)
VH: B2 VH with Q1E
VL: B2 VL with N1D, C53S, R72G, D80S
notes: Intact humanized IgG (human Fc); also called VHv3/VLv6
On to B5, for which the binding result (in experiment [2]; in experiment [3]; with recombinant laminin 411) was “binds” in each case.
